The record followed here is PMC4538822, “Ribosomal protein L10(L12)4 autoregulates expression of the Bacillus subtilis rplJL operon by a transcription attenuation mechanism”.

For series [1], the target named is T1, L10(L12)4 complex (ribosomal proteins L10 and L12) (Bacillus subtilis (source strain of the …, UniProt P42923;P02394 1-166;1-123)).
T1 sequence 1: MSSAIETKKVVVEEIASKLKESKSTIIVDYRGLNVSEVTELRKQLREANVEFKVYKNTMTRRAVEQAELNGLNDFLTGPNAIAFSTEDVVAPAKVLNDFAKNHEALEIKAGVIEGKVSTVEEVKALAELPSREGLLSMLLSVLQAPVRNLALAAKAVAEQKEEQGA
T1 sequence 2: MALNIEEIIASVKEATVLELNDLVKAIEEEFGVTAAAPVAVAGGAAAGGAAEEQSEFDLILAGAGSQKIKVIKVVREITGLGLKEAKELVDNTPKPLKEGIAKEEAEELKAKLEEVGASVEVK
The series can be described thus: 3' boundary analysis (native gel EMSA); 1 or 3 uM L10(L12)4; Filter binding: 30 mM Tris-HCl pH 7.6, 175 mM KCl, 3 mM MgCl2, 10% glycerol, 0.2 mg/ml yeast RNA, 50 ug/ml BSA, 0.01 nM RNA, 37 C 30 min; in-line probing: 50 mM Tris-HCl pH 8.3, 20 mM MgCl2, 100 mM KCl, 15% glycerol, 25 C 40 h; boundary: 37 C 30 min. As to conditions: protein: recombinant, tags: N-terminal His6 on L10, copies: 1;4, label: 5' 32P, AAT structure complete (3' end of AAT at +72). (In general: A gel shift assay detects complexes by their altered migration in electrophoresis.)

The target of series [2] is T1, L10(L12)4 complex (ribosomal proteins …). The experiment in a line: filter binding; 3 mM Mg2+; yeast RNA competitor 0.2 mg/ml; apparent Kd; Filter binding: 30 mM Tris-HCl pH 7.6, 175 mM KCl, 3 mM MgCl2, 10% glycerol, 0.2 mg/ml yeast RNA, 50 ug/ml BSA, 0.01 nM RNA, 37 C 30 min; in-line probing: 50 mM Tris-HCl pH 8.3, 20 mM MgCl2, 100 mM KCl, 15% glycerol, 25 C 40 h; boundary: 37 C 30 min. As to conditions: protein: recombinant; tags: N-terminal His6 on L10; L12 native; copies: 1;4; label: 5' 32P; anti-antiterminator (AAT) structure with kink-turn.

B1: rplJL leader RNA +13 to +76 (3' boundary, bound) (structured_RNA)
RNA: AAUAUCAUUUAUACCGUAGACAGUAGGGGCCUAACCGCUUAAUUAUCCUACCGAGGUGUAUAUU
With B1, the binding result in series [1] is “binds”.

B2: rplJL leader RNA +13 to +118 (structured_RNA)
RNA: AAUAUCAUUUAUACCGUAGACAGUAGGGGCCUAACCGCUUAAUUAUCCUACCGAGGUGUAUAUUAUCACAGCUAUUACGUUACGUAUGCUUGUAUAUACAGCCUCC
As for B2, the Kd in series [2] was 0.033 ± 0.01 µM.
